Test results reported in patent publication US20230212549A1, “COMPOUNDS COMPRISING A […] LIGAND AND USE THEREOF” (priority 2021, published 2023).
Bridge positions count the residues as written; N and C are the ends.

How the values were obtained:
Assay in all cases: cell-based or functional assay
[1] = biological target: T1, PDE4D2 (h) (human), Q08499
T1 chain: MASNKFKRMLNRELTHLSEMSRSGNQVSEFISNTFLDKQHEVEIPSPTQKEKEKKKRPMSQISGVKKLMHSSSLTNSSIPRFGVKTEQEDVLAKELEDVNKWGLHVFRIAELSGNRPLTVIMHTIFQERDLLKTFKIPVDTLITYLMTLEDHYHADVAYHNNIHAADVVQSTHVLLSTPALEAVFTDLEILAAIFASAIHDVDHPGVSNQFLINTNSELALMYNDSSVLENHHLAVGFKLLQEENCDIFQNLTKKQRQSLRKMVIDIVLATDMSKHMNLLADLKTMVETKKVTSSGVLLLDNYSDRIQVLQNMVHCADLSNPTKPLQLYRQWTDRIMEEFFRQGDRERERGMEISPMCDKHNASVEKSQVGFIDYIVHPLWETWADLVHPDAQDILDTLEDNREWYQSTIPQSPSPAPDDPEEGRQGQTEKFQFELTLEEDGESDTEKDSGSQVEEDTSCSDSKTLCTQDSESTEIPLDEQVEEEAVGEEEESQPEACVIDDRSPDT

DPP8, Q6V1X1 = biological target: DPP8, Q6V1X1
Chain of DPP8, Q6V1X1 (Q6V1X1 whole entry): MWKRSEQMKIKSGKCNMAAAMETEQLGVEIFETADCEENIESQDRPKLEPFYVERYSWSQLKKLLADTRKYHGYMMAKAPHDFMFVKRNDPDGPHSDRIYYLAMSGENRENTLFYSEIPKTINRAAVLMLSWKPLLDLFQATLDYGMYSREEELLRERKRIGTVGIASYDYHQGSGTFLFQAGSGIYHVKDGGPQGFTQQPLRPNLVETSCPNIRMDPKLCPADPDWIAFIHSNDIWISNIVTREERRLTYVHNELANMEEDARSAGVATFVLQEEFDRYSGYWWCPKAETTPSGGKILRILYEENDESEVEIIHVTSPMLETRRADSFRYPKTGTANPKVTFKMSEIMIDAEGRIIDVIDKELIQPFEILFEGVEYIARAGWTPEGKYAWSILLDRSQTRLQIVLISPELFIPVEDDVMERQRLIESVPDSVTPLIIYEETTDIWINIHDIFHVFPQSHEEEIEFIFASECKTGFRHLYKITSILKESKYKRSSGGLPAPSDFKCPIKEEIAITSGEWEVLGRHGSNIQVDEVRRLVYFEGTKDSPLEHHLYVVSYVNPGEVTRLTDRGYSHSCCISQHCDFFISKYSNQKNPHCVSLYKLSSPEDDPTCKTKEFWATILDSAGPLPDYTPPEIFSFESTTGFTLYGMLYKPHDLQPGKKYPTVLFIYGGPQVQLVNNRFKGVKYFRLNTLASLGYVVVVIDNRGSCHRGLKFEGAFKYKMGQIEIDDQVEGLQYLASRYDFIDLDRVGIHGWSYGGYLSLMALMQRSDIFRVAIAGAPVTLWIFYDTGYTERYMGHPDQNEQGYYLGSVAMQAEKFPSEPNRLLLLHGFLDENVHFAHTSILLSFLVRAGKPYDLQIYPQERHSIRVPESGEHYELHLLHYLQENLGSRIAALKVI

Caspase-6, P55212 = biological target: T2, Caspase-6, P55212
T2 chain: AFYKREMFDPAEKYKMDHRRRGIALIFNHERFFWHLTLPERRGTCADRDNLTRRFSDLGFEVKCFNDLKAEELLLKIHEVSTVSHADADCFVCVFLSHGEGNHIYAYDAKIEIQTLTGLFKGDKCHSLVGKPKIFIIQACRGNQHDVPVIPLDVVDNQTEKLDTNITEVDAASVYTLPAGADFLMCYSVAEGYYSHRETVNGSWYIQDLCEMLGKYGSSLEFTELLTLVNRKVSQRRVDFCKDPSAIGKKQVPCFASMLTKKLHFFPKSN

[2] = biological target: T3, Acetylcholinesterase (h) (human), P22303
T3 chain: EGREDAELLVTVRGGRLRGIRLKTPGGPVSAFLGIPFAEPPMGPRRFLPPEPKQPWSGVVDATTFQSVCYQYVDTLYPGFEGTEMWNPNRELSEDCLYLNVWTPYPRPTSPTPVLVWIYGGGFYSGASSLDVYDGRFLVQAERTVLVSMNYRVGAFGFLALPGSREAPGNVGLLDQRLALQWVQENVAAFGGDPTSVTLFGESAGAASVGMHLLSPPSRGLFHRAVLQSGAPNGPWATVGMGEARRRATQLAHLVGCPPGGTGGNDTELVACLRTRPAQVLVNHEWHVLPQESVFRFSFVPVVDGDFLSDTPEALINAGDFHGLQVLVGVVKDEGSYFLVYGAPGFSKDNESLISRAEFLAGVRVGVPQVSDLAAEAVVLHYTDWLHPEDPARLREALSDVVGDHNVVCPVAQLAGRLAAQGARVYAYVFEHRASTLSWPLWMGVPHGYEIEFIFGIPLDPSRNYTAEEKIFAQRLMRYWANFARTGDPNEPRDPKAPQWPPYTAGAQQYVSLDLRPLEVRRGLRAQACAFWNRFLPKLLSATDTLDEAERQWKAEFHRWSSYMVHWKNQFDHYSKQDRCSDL

[3] = biological target: Lek kinase (h) (human), P06239
Chain of Lek kinase (h) (human), P06239 (P06239 whole entry): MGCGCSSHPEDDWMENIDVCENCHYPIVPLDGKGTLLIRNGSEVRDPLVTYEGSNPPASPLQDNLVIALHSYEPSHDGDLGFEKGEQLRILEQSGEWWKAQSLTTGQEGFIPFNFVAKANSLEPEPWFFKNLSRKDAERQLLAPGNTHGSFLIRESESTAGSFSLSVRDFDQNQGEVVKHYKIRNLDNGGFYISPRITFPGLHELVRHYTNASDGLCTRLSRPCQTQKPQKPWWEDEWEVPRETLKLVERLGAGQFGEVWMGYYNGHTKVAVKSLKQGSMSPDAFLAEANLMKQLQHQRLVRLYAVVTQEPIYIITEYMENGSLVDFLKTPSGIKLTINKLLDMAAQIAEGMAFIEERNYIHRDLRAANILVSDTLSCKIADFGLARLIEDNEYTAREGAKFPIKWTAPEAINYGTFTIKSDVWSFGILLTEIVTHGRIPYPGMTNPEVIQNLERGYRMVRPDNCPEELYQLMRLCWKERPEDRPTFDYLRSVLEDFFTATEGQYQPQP

Cathepsin F, Q9UBX1 = biological target: T4, Cathepsin F, Q9UBX1
T4 chain: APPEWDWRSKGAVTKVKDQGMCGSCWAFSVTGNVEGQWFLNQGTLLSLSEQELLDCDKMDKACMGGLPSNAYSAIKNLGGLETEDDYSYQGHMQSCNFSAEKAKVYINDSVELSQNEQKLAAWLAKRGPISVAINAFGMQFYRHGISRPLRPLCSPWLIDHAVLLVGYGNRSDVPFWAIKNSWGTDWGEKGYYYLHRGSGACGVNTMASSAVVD

DPP7, Q9UHL4 = biological target: DPP7, Q9UHL4
A20, P21580 = biological target: T5, A20, P21580
T5 chain: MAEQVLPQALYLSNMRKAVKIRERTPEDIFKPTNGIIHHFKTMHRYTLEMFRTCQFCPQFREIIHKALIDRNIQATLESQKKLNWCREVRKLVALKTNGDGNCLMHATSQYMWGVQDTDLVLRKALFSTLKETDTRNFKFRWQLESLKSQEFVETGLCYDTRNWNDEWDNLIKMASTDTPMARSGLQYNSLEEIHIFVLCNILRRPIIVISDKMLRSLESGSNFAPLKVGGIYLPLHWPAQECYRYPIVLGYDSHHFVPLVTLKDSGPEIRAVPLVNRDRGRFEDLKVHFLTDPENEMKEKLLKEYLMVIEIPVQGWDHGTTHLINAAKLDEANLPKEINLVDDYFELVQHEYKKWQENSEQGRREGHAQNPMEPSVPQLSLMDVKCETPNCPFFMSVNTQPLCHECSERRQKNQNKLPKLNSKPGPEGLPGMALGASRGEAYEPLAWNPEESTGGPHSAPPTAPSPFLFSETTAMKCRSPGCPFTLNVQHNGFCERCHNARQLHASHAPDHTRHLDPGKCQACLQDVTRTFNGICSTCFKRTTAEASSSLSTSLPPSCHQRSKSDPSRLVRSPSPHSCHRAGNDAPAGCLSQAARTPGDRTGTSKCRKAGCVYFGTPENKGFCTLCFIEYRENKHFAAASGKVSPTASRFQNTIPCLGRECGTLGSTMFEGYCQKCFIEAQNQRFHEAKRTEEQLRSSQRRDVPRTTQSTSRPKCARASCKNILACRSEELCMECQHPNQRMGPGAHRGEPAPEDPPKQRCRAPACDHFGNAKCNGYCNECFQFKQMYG

Ataxin3, P54252 = biological target: Ataxin3, P54252
Chain of Ataxin3, P54252 (P54252 whole entry): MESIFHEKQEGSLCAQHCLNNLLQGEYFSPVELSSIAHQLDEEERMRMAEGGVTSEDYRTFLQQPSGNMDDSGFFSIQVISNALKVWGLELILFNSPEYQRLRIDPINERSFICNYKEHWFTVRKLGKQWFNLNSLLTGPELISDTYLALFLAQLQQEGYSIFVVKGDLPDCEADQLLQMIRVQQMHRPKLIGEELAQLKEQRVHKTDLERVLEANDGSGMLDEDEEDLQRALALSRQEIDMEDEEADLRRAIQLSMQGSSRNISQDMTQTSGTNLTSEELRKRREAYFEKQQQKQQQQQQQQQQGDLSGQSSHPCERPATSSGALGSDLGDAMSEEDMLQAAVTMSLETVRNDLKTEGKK

Cathepsin B, P07858 = biological target: Cathepsin B, P07858
[4] = biological target: Activated Protein C, P04070
Cathepsin S, P25774 = biological target: Cathepsin S, P25774
Chain of Cathepsin S, P25774 (P25774 115-331 limits assumed): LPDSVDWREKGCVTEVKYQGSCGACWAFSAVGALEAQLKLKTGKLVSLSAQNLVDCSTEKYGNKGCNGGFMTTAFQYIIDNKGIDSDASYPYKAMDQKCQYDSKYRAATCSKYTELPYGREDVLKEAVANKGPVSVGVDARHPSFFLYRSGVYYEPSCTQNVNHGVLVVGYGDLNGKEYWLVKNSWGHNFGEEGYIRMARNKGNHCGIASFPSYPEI

[5] = biological target: Ubiquitin carboxy-terminal hydrolase L1, P09936
Chain of Ubiquitin carboxy-terminal hydrolase L1, P09936 (P09936 whole entry): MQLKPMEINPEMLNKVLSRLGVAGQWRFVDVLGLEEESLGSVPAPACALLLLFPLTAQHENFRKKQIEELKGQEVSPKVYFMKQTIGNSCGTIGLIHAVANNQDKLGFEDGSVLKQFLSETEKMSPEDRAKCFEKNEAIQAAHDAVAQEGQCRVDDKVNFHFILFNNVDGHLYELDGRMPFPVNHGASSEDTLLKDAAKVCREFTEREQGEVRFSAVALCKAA

Row | Binder | % inhibition of control enzyme activity, compound at 10 µM [1] [%] | Percentage inhibition (%) at 1 µM (DPP8, Q6V1X1) [%] | Percentage inhibition (%) at 10 µM (DPP8, Q6V1X1) [%] | Percentage inhibition (%) at 1 µM (Caspase-6, P55212) [%] | Percentage inhibition (%) at 10 µM (Caspase-6, P55212) [%] | % inhibition of control enzyme activity, compound at 10 µM [2] [%] | % inhibition of control enzyme activity, compound at 10 µM [3] [%] | Percentage inhibition (%) at 1 µM (Cathepsin F, Q9UBX1) [%] | Percentage inhibition (%) at 10 µM (Cathepsin F, Q9UBX1) [%] | Percentage inhibition (%) at 1 µM (DPP7, Q9UHL4) [%] | Percentage inhibition (%) at 10 µM (DPP7, Q9UHL4) [%] | Percentage inhibition (%) at 1 µM (A20, P21580) [%] | Percentage inhibition (%) at 10 µM (A20, P21580) [%] | Percentage inhibition (%) at 1 µM (Ataxin3, P54252) [%] | Percentage inhibition (%) at 10 µM (Ataxin3, P54252) [%] | Percentage inhibition (%) at 1 µM (Cathepsin B, P07858) [%] | Percentage inhibition (%) at 10 µM (Cathepsin B, P07858) [%] | Percentage inhibition (%) at 1 µM [4] [%] | Percentage inhibition (%) at 10 µM [4] [%] | Percentage inhibition (%) at 1 µM (Cathepsin S, P25774) [%] | other results
1 | Hex-CPPTQFCD-NH2 (bridge 1-7; not fully specified (bridges); printed as Hex-[Cys(tMeBn(DOTA-PP))-Pro-Pro-Thr-Gln-Phe-Cys]-Asp-NH2) [Hex-[Cys(tMeBn(DOTA-PP))-Pro-Pro-Thr-Gln-Phe-Cys]-Asp-NH2] | -5 | 1 | 5 | 1 | -1 | -6 | 10 | -3 | -24 | 2 | -3 | 2 | -4 | 1 | 10 | 26 | 36 | 5 | 8 | 3 | Percentage inhibition (%) at 10 µM (Cathepsin S, P25774): 18%; Percentage inhibition (%) at 1 µM [5]: -2%; Percentage inhibition (%) at 10 µM [5]: 4%
2 | Hex-CPPTQFC-OH (bridge 1-7; not fully specified (bridges); printed as Hex-[Cys(tMeBn(DOTA-AET))-Pro-Pro-Thr-Gln-Phe-Cys]-OH) [Hex-[Cys(tMeBn(DOTA-AET))-Pro-Pro-Thr-Gln-Phe-Cys]-OH] | -4 | 1 | 11 | 6 | -3 | 1 | -4 | -23 | -25 | -1 | -7 | 1 | 0 | 2 | -1 | 1 | 2 | -11 | 1 | -10 | Percentage inhibition (%) at 10 µM (Cathepsin S, P25774): -23%; Percentage inhibition (%) at 1 µM [5]: -4%; Percentage inhibition (%) at 10 µM [5]: 4%
